PMC5563082, “Structural Mechanism for Modulation of Synaptic Neuroligin-Neurexin Signaling by MDGA Proteins” (Neuron, 2017)

T1: human MDGA2 extracellular domain (MDGA2_(ECTO); Gln21-Lys927) (human, UniProt Q7Z553 21-927)
T1 construct: human MAM domain-containing glycosylphosphatidylinositol anchor protein 2, Gln21-Lys927; Not deglycosylated; source: HEK293T, transient transfection, purified (IMAC, SEC)
T1 sequence (looked up): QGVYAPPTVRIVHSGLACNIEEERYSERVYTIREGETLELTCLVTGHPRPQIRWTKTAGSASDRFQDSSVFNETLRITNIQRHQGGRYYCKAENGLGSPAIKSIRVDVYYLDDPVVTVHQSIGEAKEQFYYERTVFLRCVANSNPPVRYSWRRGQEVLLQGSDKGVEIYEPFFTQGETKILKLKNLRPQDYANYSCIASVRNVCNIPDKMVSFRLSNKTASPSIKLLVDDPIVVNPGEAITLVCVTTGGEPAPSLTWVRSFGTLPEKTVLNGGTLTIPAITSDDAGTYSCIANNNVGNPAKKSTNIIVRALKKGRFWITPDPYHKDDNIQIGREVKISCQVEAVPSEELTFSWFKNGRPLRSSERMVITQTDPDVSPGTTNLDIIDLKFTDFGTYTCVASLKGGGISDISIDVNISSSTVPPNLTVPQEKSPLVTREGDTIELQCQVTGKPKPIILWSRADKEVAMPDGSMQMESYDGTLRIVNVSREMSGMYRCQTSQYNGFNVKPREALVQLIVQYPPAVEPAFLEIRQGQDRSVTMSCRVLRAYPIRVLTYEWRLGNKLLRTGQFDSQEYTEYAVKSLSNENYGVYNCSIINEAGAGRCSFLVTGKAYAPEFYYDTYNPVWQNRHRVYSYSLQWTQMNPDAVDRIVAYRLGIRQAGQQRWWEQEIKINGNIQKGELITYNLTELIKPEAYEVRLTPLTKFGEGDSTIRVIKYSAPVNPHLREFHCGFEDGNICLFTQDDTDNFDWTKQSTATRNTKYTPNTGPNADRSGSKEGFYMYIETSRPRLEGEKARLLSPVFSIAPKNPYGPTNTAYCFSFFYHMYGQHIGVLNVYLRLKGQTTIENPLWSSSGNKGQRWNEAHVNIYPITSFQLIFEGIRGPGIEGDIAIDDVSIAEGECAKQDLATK

T2: human MDGA1 extracellular domain (MDGA1_(ECTO); Gln19-Lys925) (human, UniProt Q8NFP4-1 19-925)
T2 construct: human MAM domain-containing glycosylphosphatidylinositol anchor protein 1, Gln19-Lys925; Not deglycosylated; also called human MDGA1_(ECTO); source: HEK293T, transient transfection, purified (IMAC, SEC)
T2 sequence (looked up): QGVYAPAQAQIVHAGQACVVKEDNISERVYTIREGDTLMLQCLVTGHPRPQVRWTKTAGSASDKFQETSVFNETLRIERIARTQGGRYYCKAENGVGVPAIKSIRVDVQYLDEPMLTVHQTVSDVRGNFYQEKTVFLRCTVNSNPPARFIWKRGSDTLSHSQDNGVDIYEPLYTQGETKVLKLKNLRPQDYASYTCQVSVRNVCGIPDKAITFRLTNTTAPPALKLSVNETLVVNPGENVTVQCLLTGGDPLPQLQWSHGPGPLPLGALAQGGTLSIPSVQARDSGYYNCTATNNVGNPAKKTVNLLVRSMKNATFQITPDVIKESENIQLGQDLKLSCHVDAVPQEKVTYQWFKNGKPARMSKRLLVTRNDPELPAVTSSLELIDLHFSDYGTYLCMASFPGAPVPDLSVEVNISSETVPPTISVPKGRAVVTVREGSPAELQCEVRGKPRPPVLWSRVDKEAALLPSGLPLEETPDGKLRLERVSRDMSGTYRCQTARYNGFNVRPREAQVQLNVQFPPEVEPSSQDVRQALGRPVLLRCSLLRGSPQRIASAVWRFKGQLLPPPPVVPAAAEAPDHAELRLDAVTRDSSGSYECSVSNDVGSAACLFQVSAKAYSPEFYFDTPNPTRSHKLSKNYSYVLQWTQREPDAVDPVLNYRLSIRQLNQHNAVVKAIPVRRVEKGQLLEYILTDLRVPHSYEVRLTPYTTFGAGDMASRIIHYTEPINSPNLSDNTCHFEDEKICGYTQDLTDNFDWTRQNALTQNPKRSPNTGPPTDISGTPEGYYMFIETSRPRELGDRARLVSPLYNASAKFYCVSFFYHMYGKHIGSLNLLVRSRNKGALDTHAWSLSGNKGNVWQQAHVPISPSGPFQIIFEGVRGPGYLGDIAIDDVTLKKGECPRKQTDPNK


Key:
[1] = target: T1, human MDGA2 extracellular domain …; assay: SPR; biotinylated NL_(ECTO)-Avitag variants captured from dialysed conditioned medium on streptavidin CM5 chip (500 RU; 550 RU for the ΔSite series; 1000 RU for NL3 and NL3 Arg451Cys in the R451C series); β-NRX1_(LNS6)(±4), MDGA1_(ECTO), MDGA2_(ECTO) injected, 15 concentrations, two-fold series from 50 μM; TBS-CTB (10 mM Tris pH 7.4, 150 mM NaCl, 3 mM CaCl2, 0.005% Tween-20, 1.0 g/L BSA); equilibrium analysis, 1:1 …; conditions: both partners purified
[2] = target: T2, human MDGA1 extracellular domain …; assay: as above; conditions: both partners purified

| binding result [1] | binding result [2] | Binder |
| --- | --- | --- |
| binds | binds | human NL3(+A1+A2)_(ECTO), immobilised for SPR (domain or fragment, UniProt Q9NZ94-1 38-636, looked up, biotin on the Avitag (in vivo biotinylation by BirA), source: HEK293T, co-transfected with ER-resident BirA; dialysed conditioned medium, captured on streptavidin chip) QAPAPTVNTHFGKLRGARVPLPSEILGPVDQYLGVPYAAPPIGEKRFLPPEPPPSWSGIRNATHFPPVCPQNIHTAVPEVMLPVWFTANLDIVATYIQEPNEDCLYLNVYVPTEDVKRISKECARKPNKKICRKGGSGAKKQGEDLADNDGDEDEDIRDSGAKPVMVYIHGGSYMEGTGNMIDGSILASYGNVIVITLNYRVGVLGFLSTGDQAAKGNYGLLDQIQALRWVSENIAFFGGDPRRITVFGSGIGASCVSLLTLSHHSEGLFQRAIIQSGSALSSWAVNYQPVKYTSLLADKVGCNVLDTVDMVDCLRQKSAKELVEQDIQPARYHVAFGPVIDGDVIPDDPEILMEQGEFLNYDIMLGVNQGEGLKFVEGVVDPEDGVSGTDFDYSVSNFVDNLYGYPEGKDTLRETIKFMYTDWADRDNPETRRKTLVALFTDHQWVEPSVVTADLHARYGSPTYFYAFYHHCQSLMKPAWSDAAHGDEVPYVFGVPMVGPTDLFPCNFSKNDVMLSAVVMTYWTNFAKTGDPNKPVPQDTKFIHTKANRFEEVAWSKYNPRDQLYLHIGLKPRVRDHYRATKVAFWKHLVPHLYNLHD |
| binds | binds | human NL3(+A2)_(ECTO), immobilised for SPR (domain or fragment, UniProt Q9NZ94-1 38-636, looked up, biotin on the Avitag (in vivo biotinylation by BirA), source: HEK293T, co-transfected with ER-resident BirA; dialysed conditioned medium, captured on streptavidin chip) QAPAPTVNTHFGKLRGARVPLPSEILGPVDQYLGVPYAAPPIGEKRFLPPEPPPSWSGIRNATHFPPVCPQNIHTAVPEVMLPVWFTANLDIVATYIQEPNEDCLYLNVYVPTEDGSGAKKQGEDLADNDGDEDEDIRDSGAKPVMVYIHGGSYMEGTGNMIDGSILASYGNVIVITLNYRVGVLGFLSTGDQAAKGNYGLLDQIQALRWVSENIAFFGGDPRRITVFGSGIGASCVSLLTLSHHSEGLFQRAIIQSGSALSSWAVNYQPVKYTSLLADKVGCNVLDTVDMVDCLRQKSAKELVEQDIQPARYHVAFGPVIDGDVIPDDPEILMEQGEFLNYDIMLGVNQGEGLKFVEGVVDPEDGVSGTDFDYSVSNFVDNLYGYPEGKDTLRETIKFMYTDWADRDNPETRRKTLVALFTDHQWVEPSVVTADLHARYGSPTYFYAFYHHCQSLMKPAWSDAAHGDEVPYVFGVPMVGPTDLFPCNFSKNDVMLSAVVMTYWTNFAKTGDPNKPVPQDTKFIHTKANRFEEVAWSKYNPRDQLYLHIGLKPRVRDHYRATKVAFWKHLVPHLYNLHD |
